Measured values as given in IntAct's records for PubMed 17003112.

B1: Nuclear factor NF-kappa-B p105 subunit (Homo sapiens), P19838 (parent)
chain: MAEDDPYLGRPEQMFHLDPSLTHTIFNPEVFQPQMALPTDGPYLQILEQPKQRGFRFRYVCEGPSHGGLPGASSEKNKKSYPQVKICNYVGPAKVIVQLVTNGKNIHLHAHSLVGKHCEDGICTVTAGPKDMVVGFANLGILHVTKKKVFETLEARMTEACIRGYNPGLLVHPDLAYLQAEGGGDRQLGDREKELIRQAALQQTKEMDLSVVRLMFTAFLPDSTGSFTRRLEPVVSDAIYDSKAPNASNLKIVRMDRTAGCVTGGEEIYLLCDKVQKDDIQIRFYEEEENGGVWEGFGDFSPTDVHRQFAIVFKTPKYKDINITKPASVFVQLRRKSDLETSEPKPFLYYPEIKDKEEVQRKRQKLMPNFSDSFGGGSGAGAGGGGMFGSGGGGGGTGSTGPGYSFPHYGFPTYGGITFHPGTTKSNAGMKHGTMDTESKKDPEGCDKSDDKNTVNLFGKVIETTEQDQEPSEATVGNGEVTLTYATGTKEESAGVQDNLFLEKAMQLAKRHANALFDYAVTGDVKMLLAVQRHLTAVQDENGDSVLHLAIIHLHSQLVRDLLEVTSGLISDDIINMRNDLYQTPLHLAVITKQEDVVEDLLRAGADLSLLDRLGNSVLHLAAKEGHDKVLSILLKHKKAALLLDHPNGDGLNAIHLAMMSNSLPCLLLLVAAGADVNAQEQKSGRTALHLAVEHDNISLAGCLLLEGDAHVDSTTYDGTTPLHIAAGRGSTRLAALLKAAGADPLVENFEPLYDLDDSWENAGEDEGVVPGTTPLDMATSWQVFDILNGKPYEPEFTSDDLLAQGDMKQLAEDVKLQLYKLLEIPDPDKNWATLAQKLGLGILNNAFRLSPAPSKTLMDNYEVSGGTVRELVEALRQMGYTEAIEVIQAASSPVKTTSQAHSLPLSPASTRQQIDELRDSDSVCDSGVETSFRKLSFTESLTSGASLLTLNKMPHDYGQEGPLEGKI

Variants of: B1
Conditions: with hif1n_human HIF1AN

| Variant | effect of a mutation on the interaction |
| --- | --- |
| N678A | disrupting interaction strength |
